This note sets out measurements from the supplement of paper PMC7877785.

± gives the uncertainty stated by the source.

The data set can be described thus: self-splicing fitness, log relative to wild type (ln ratio); higher = more splicing; Tetrahymena group I intron in knt gene, E. coli kanamycin selection, DiMSum; sequences stand for … in CUCUCU…GGAGGGAAAAGUUAUCAGGCAUGCACCUGGUAGCUAGUCUUUAAACCAAUAGAUUGCAUCGGUUUAAAAGGCAAGACCGUCAAAUUGCGGGAAAGGGGUCAACAGCCGUUCAGUACCAAGUCUCAGGGGAAACUUUGAGAUGGCCUUGCAAAGGGUAUGGUAAUAAGCUGACGGACAUGGUCCUAACCACGCAGCCAAGUCCUAAGUCAACAGAUCUUCUGUUGAUAUGGAUGCAGUUCACAGACUAAAUGUCGGUCGGGGAAGAUGUAUUCUUCUCAUAAGAUAUAGUCGGACCUCUCCUUAAUGGGAGCUAGCGGAUGAAGUGAUGCAACACUGGAGCCGCUGGGAACUAAUUUGUAUGCGAAAGUAUAUUGAUUAGUUUUGGAGUACUCGUGGUCG
The essentials:
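Fitness was computed with DiMSum as the error-weighted combination of replicate fold changes, kanamycin versus none, each normalised to wild type. The library randomised all eight intron nucleotides of the P1ex region, with the intron placed in the knt kanamycin-resistance gene on pET-22b(+) in E. coli BL21(DE3). Six replicate transformations were grown overnight at 37°C or 30°C on LB agar with or without 25 μg/mL kanamycin, plus 100 μg/mL carbenicillin, 50 μM IPTG and 0.2% rhamnose. Pooled colonies were amplicon-sequenced on an Illumina HiSeq 2500.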

On to UCCAAGCAAUAUUACGAAUC, for which the “self-splicing fitness (ln)” value (37 °C) is -1.28 ± 0.19.

As to UCCAAGCAAUAUUACGAAUU, the “self-splicing fitness (ln)” value reads like this: (30 °C) -3.42 ± 0.14; (37 °C) -2.5 ± 0.16.

For UCCAAGCAAUAUUACGACCG, the “self-splicing fitness (ln)” value (37 °C) was -1.38 ± 0.41.

For UCCAAGCAAUAUUACGAGCU, the “self-splicing fitness (ln)” value is -3.58 ± 0.16 (30 °C) and -3 ± 0.25 (37 °C).

For the sequence UCCAAGCAAUAUUACGAGGU, the “self-splicing fitness (ln)” value is, setting by setting: (30 °C) -3.4 ± 0.14; (37 °C) -1.8 ± 0.11.

For UCCAAGCAAUAUUACGAUAU, the “self-splicing fitness (ln)” value runs as follows: (30 °C) -3.24 ± 0.19; (37 °C) -2.57 ± 0.16.

UCCAAGCAAUAUUACGAUGG: the “self-splicing fitness (ln)” value by setting is: (30 °C) -1.01 ± 0.059; (37 °C) 0.16 ± 0.083.

Regarding UCCAAGCAAUAUUACGCCAU, the “self-splicing fitness (ln)” value is -4.34 ± 0.28 (30 °C) and -3.21 ± 0.27 (37 °C).

As for UCCAAGCAAUAUUACGCCCU, the “self-splicing fitness (ln)” value runs as follows: (30 °C) -2.49 ± 0.24; (37 °C) -1.32 ± 0.26.

UCCAAGCAAUAUUACGCCGC: the “self-splicing fitness (ln)” value (30 °C) is -2.64 ± 0.32.

As for UCCAAGCAAUAUUACGCUAC, the “self-splicing fitness (ln)” value was -3.8 ± 0.27 (30 °C) and -2.48 ± 0.24 (37 °C).

As for UCCAAGCAAUAUUACGGACC, the “self-splicing fitness (ln)” value was -2.63 ± 0.36 (30 °C) and -0.119 ± 0.18 (37 °C).

With UCCAAGCAAUAUUACGGAGC, the “self-splicing fitness (ln)” value by setting is: (30 °C) -3.35 ± 0.37; (37 °C) -2.44 ± 0.26.

For the sequence UCCAAGCAAUAUUACGGAGU, the “self-splicing fitness (ln)” value (30 °C) was -2.17 ± 0.12 and the “self-splicing fitness (ln)” value (37 °C) was -1.44 ± 0.13.

For the sequence UCCAAGCAAUAUUACGGAUG, the “self-splicing fitness (ln)” value reads like this: (30 °C) -3.77 ± 0.13; (37 °C) -3.2 ± 0.25.

As for UCCAAGCAAUAUUACGGGCG, the “self-splicing fitness (ln)” value is -1.05 ± 0.073 (30 °C) and -0.839 ± 0.085 (37 °C).

As to UCCAAGCAAUAUUACGGGGG, the “self-splicing fitness (ln)” value was -3.91 ± 0.2 (30 °C) and -3.41 ± 0.24 (37 °C).

For UCCAAGCAAUAUUACGGGUU, the “self-splicing fitness (ln)” value is -3.89 ± 0.14 (30 °C) and -1.75 ± 0.097 (37 °C).

Regarding UCCAAGCAAUAUUACGUCAG, the “self-splicing fitness (ln)” value was -3.02 ± 0.15 (30 °C) and -1.69 ± 0.13 (37 °C).

As to UCCAAGCAAUAUUACGUCCU, the “self-splicing fitness (ln)” value reads like this: (30 °C) -4.09 ± 0.31; (37 °C) -2.95 ± 0.43.

On to UCCAAGCAAUAUUACGUCGC, for which the “self-splicing fitness (ln)” value is -3.47 ± 0.21 (30 °C) and -3.12 ± 0.28 (37 °C).

For UCCCAGCAAUAUUACGAAUU, the “self-splicing fitness (ln)” value was -3.04 ± 0.19 (30 °C) and -2.27 ± 0.17 (37 °C).

Turning to UCCCAGCAAUAUUACGACAA, the “self-splicing fitness (ln)” value runs as follows: (30 °C) -2.16 ± 0.15; (37 °C) -1.37 ± 0.14.

Take UCCCAGCAAUAUUACGAGCA: the “self-splicing fitness (ln)” value is -0.711 ± 0.1 (30 °C) and 0.0665 ± 0.13 (37 °C).

Turning to UCCCAGCAAUAUUACGAGGA, the “self-splicing fitness (ln)” value is -2.18 ± 0.11 (30 °C) and -1.36 ± 0.12 (37 °C).

UCCCAGCAAUAUUACGAUCU: the “self-splicing fitness (ln)” value runs as follows: (30 °C) -3.77 ± 0.23; (37 °C) -1.95 ± 0.24.

For the sequence UCCCAGCAAUAUUACGCACG, the “self-splicing fitness (ln)” value by setting is: (30 °C) -3.4 ± 0.17; (37 °C) -2.6 ± 0.23.

For UCCCAGCAAUAUUACGCGUA, the “self-splicing fitness (ln)” value (30 °C) is -0.178 ± 0.066 and the “self-splicing fitness (ln)” value (37 °C) was found to be 0.0254 ± 0.079.

UCCCAGCAAUAUUACGGACA: the “self-splicing fitness (ln)” value reads like this: (30 °C) -1.63 ± 0.092; (37 °C) -0.126 ± 0.081.

In the case of UCCCAGCAAUAUUACGGGAU, the “self-splicing fitness (ln)” value (30 °C) is -3.59 ± 0.14 and the “self-splicing fitness (ln)” value (37 °C) is -3.46 ± 0.21.

For UCCCAGCAAUAUUACGGGUA, the “self-splicing fitness (ln)” value runs as follows: (30 °C) -0.837 ± 0.065; (37 °C) -0.432 ± 0.071.

With UCCCAGCAAUAUUACGGGUC, the “self-splicing fitness (ln)” value by setting is: (30 °C) -3.67 ± 0.16; (37 °C) -3.35 ± 0.22.

Take UCCCAGCAAUAUUACGGUCG: the “self-splicing fitness (ln)” value reads like this: (30 °C) -1.76 ± 0.071; (37 °C) -0.748 ± 0.078.

Turning to UCCCAGCAAUAUUACGGUGC, the “self-splicing fitness (ln)” value by setting is: (30 °C) -2.41 ± 0.13; (37 °C) -1.51 ± 0.13.

UCCCAGCAAUAUUACGUAGG: the “self-splicing fitness (ln)” value (30 °C) was -4.06 ± 0.17 and the “self-splicing fitness (ln)” value (37 °C) is -1.08 ± 0.11.

Take UCCCAGCAAUAUUACGUCAC: the “self-splicing fitness (ln)” value runs as follows: (30 °C) -4.1 ± 0.33; (37 °C) -3.23 ± 0.33.

UCCCAGCAAUAUUACGUCCU: the “self-splicing fitness (ln)” value (30 °C) is -3.36 ± 0.18 and the “self-splicing fitness (ln)” value (37 °C) was -1.48 ± 0.15.

On to UCCCAGCAAUAUUACGUCGA, for which the “self-splicing fitness (ln)” value runs as follows: (30 °C) -0.251 ± 0.071; (37 °C) 0.317 ± 0.099.
